Experimental data published in patent US20180092984A1 (Seagen, published 2018).

T1: human CD48 (human, UniProt P09326 27-220)
T1 construct: whole, on cells; also called BLAST-1; SLAMF2
T1 sequence (looked up): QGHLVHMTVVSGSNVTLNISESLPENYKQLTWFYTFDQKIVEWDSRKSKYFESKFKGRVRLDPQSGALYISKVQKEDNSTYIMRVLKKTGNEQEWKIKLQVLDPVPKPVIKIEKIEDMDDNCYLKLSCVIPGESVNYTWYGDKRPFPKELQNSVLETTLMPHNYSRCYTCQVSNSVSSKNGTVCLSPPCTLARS

B1: hMEM102-HALA (antibody, V domains shown)
VH: QVQLVQSGSELKKPGASVKVSCKASGYTFTDFGMNWVRQAPGQGLEWMGWINTFTGEPSYGNVFKGRFVFSLDTSVSTAYLQISSLKAEDTAVYYCARRHGNGNVFDSWGQGTLVTVSS
VL: EIVLTQSPDFQSVTPKEKVTITCRASQSIGSNIHWYQQKPDQSPKLLIKYTSESISGVPSRFSGSGSGTDFTLTINSLEAEDAATYYCQQSNSWPLTFGGGTKVEIKR
notes: also called humanized MEM102 antibody; humanized MEM102-HALA antibody

How the values were obtained:
human CD48 [1] = target: T1, human CD48; experiment: flow cytometry saturation binding on U-266 cells
Method: (§1) After one hour incubation on ice, cells were washed twice with phosphate buffered saline containing 2% fetal bovine serum and 0.02% sodium azide. Fluorescence was detected on a LSRII flow cytometer and Kd values were determined using one-site binding (hyperbola) non-linear regression in GraphPad Prism.

human CD48 [2] = target: T1, human CD48; experiment: flow cytometry saturation binding, Alexa Fluor-647 antibody on U-266 cells
Method: as §1

[3] = target: cynomolgus monkey CD48 (cynomolgus monkey); experiment: flow cytometry saturation binding on CHO-DG44 cells expressing cynomolgus monkey CD48
[4] = target: cynomolgus monkey CD48 (cynomolgus monkey); experiment: flow cytometry saturation binding, Alexa Fluor-647 antibody on CHO-DG44 cells expressing cynomolgus monkey CD48
human CD48 [5] = target: T1, human CD48; experiment: flow cytometry saturation binding, U-266 cells against CHO-DG44 cynomolgus monkey CD48 cells
Method: as §1

Row | Molecule | fold lower Kd compared to mMEM102 (human CD48 [1]) [fold] | Kd (human CD48 [2]) [nM] | fold lower Kd compared to mMEM102 [3] [fold] | Kd [4] [nM] | fold stronger binding affinity to human CD48 compared to cynomolgus monkey CD48 (human CD48 [5]) [fold]
1 | cMEM102 (antibody) | > 4 | 5.8 | > 4 | 40.5 | 6
2 | mMEM102 (antibody) | – | 20.8 | – | 165 | 6
3 | B1 | > 4 | 5 | > 4 | 31.1 | ~6
